Experimental findings from patent US20130122005A1, “ANTICANCER COMBINATION THERAPY” (priority 2011, published 2013) are described below.

The target in the assay is human IGF-1R (human) (UniProt P08069). Briefly: cell-based or functional assay.
Sequence of human IGF-1R (human) (P08069 31-1367): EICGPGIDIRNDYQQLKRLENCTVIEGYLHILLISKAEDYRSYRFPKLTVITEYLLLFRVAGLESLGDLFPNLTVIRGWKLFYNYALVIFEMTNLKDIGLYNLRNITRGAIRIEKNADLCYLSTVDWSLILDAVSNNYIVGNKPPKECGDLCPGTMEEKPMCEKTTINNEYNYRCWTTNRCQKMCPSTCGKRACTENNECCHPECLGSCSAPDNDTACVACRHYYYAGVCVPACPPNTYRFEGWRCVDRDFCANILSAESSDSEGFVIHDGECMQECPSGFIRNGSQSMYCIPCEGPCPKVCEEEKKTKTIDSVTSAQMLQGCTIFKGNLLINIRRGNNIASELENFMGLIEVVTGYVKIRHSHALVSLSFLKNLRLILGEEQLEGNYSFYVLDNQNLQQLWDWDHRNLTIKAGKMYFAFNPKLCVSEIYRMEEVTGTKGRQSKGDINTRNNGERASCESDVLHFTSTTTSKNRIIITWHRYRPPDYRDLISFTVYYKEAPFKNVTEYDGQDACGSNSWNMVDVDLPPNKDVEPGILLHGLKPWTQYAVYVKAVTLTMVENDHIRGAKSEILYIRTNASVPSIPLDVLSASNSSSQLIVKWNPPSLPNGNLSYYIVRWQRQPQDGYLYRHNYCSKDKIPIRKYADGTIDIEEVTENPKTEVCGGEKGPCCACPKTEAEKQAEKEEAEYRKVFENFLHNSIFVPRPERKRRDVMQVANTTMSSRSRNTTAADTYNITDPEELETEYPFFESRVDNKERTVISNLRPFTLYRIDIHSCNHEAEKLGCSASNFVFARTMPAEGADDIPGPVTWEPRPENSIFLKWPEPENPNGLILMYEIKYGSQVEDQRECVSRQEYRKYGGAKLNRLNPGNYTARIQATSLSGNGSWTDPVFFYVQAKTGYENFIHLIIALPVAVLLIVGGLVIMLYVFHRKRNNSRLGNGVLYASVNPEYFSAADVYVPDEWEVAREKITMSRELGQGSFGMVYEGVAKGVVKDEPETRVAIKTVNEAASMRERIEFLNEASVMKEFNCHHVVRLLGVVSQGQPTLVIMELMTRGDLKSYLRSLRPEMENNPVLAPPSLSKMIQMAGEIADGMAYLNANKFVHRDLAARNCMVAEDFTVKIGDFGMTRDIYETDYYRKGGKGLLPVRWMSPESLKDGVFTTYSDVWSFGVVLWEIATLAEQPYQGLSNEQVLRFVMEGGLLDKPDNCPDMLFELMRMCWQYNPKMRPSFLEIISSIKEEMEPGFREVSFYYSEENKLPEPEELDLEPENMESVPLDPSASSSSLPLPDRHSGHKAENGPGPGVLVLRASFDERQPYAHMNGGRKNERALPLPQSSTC

In the case of “IGF-1R antibody αIR3 (Calbiochem, No. GR11L)”, the % Remaining Phosphorylation at 15 µg/mL (100 nM) Inhibitor, IGF-1 (20 ng/mL) induced IGF-1R phosphorylation turned out to be 35%; the % Remaining Phosphorylation at 15 µg/mL (100 nM) Inhibitor, IGF-2 (100 ng/mL) induced IGF-1R phosphorylation stood at 76%; the % Remaining Phosphorylation at 15 µg/mL (100 nM) Inhibitor, human serum (20%) induced IGF-1R phosphorylation amounted to 120%; the IC50, IGF-1 (20 ng/mL) induced IGF-1R phosphorylation, cell-based ELISA was 1.16 µg/mL. Besides, the IC50, IGF-2 (100 ng/mL) induced IGF-1R phosphorylation, cell-based ELISA is over 15 µg/mL and the IC50, human serum (20%) induced IGF-1R phosphorylation, cell-based ELISA was over 15 µg/mL.
